Assay results as given in PMC3917506.

Target: mRFP1-Rac1 (wild type) (human), P63000
Assay: FRET or BRET
Details: remark: other sources report otherwise

B1: Teal-N-WASP, O00401 1-505 (natural protein)
chain: MSSVQQQPPPPRRVTNVGSLLLTPQENESLFTFLGKKCVTMSSAVVQLYAADRNCMWSKKCSGVACLVKDNPQRSYFLRIFDIKDGKLLWEQELYNNFVYNSPRGYFHTFAGDTCQVALNFANEEEAKKFRKAVTDLLGRRQRKSEKRRDPPNGPNLPMATVDIKNPEITTNRFYGPQVNNISHTKEKKKGKAKKKRLTKADIGTPSNFQHIGHVGWDPNTGFDLNNLDPELKNLFDMCGISEAQLKDRETSKVIYDFIEKTGGVEAVKNELRRQAPPPPPPSRGGPPPPPPPPHNSGPPPPPARGRGAPPPPPSRAPTAAPPPPPPSRPSVAVPPPPPNRMYPPPPPALPSSAPSGPPPPPPSVLGVGPVAPPPPPPPPPPPGPPPPPGLPSDGDHQVPTTAGNKAALLDQIREGAQLKKVEQNSRPVSCSGRDALLDQIRQGIQLKSVADGQESTPPTPAPTSGIVGALMEVMQKRSKAIHSSDEDEDEDDEEDFEDDDEWED
Which average FRET efficiency E% does the source give for B1 here?
Its average FRET efficiency E% is 14%.
